Where a chain is given by its changes, count along the chain named.
B1: PaUGP R57A (enzyme)
chain: MIKKCLFPAAGYGTRFLPATKAMPKEMLPVVNKPLIQYAVEEALEAGLSEIGIVTGAGKRSLEDHFDISYELEHQIRNTDKEKYLVGIRRLIDECTFAYTRQVEMKGLGHAILTGRPLIGDEPFAVVLADDLCLNLEGDSVLKQMVKLYNQFRCSIVAIQEVPPEETNKYGVIAGEMIRDDIFRVNTMVEKPKPEEAPSNLAIIGRYILTPDIFDLIEQTEPGKGGEIQITDALMKQAQDGCVLAYKFKGKRFDCGSAEGYIEATNFCYENLYKTGKAH
notes: UDP-glucose pyrophosphorylase of Pseudomonas aeruginosa (galU), residues 1-279, point mutant of Strep-PaUGP; Same construct as m1; source: E. coli BL21(DE3), purified (Strep-Tactin Sepharose); not shown: Strep-tagII, N-terminal, kept
B2: PaUGP K21A (enzyme)
chain: B1 chain with K21A, A57R
notes: UDP-glucose pyrophosphorylase of Pseudomonas aeruginosa (galU), residues 1-279, point mutant of Strep-PaUGP; source: E. coli BL21(DE3), purified (Strep-Tactin Sepharose); not shown: Strep-tagII, N-terminal, kept
B3: PaUGP R57K (enzyme)
chain: B1 chain with A57K
notes: as for B1
B4: PaUGP K21Q (enzyme)
chain: B1 chain with K21Q, A57R
notes: as for B1
B5: Pseudomonas aeruginosa uridine diphosphate-glucose pyrophosphorylase, wild type (Strep-PaUGP) (enzyme)
chain: B1 chain with A57R
notes: UDP-glucose pyrophosphorylase (UGP, EC 2.7.7.9) of Pseudomonas aeruginosa, galU gene amplified from plasmid PaCD00006903; residues 1-279; no cleavage is reported; Crystallised with UDP-Glc and Mg2+; also called PaUGP WT; Strep-tagged PaUGP; source: E. coli BL21(DE3), purified (Strep-Tactin Sepharose); not shown: Strep-tagII, N-terminal, kept

How the values were obtained:
[1] = biological target: the molecule itself; assay: cell-based or functional assay
Q9I291 = assay: SEC; as a1, but the more diluted sample of mutants with dilution-dependent behaviour (footnote b of Table 1; broken lines in Fig. 5 and Fig. S9)
[2] = biological target: the molecule itself; assay: native gel or EMSA; blue native PAGE, uniform 12% polyacrylamide gel with 3.5% stacking gel, 13.5 ug of each protein loaded, Coomassie-stained bands
[3] = biological target: the molecule itself; assay: SEC; as a1, but the more diluted sample of mutants with dilution-dependent behaviour (footnote b of Table 1; broken lines in Fig. 5 and Fig. S9)
[4] = biological target: the molecule itself; assay: SEC; Superdex 200 10/300 GL, 50 mM Tris-HCl pH 8.0, 300 mM NaCl, 10 mM MgCl2; oligomeric state calculated from elution volumes of proteins of known size; addition of UTP, Glc-1-P or UDP-Glc did not affect the oligomerization of the WT

Row | Protein | In vitro activity (% of WT), EnzChek pyrophosphate assay, forward reaction [1] | N of the monomer peak (minor peak) (Q9I291) | stoichiometry N [2] | stoichiometry N [3] | N of the monomer peak (main peak) (Q9I291) | N of a minor peak [3] | stoichiometry N [4]
1 | B1 | 1.28 % of WT | 1.2 | 4 | 2.4 | – | – | –
2 | B2 | 5 % of WT | – | – | – | 1.2 | 2.3 | –
3 | B3 | 2.36 % of WT | 1.2 | 4 | 3.2 | – | – | –
4 | B4 | 1.26 % of WT | – | – | – | 1.4 | 2.7 | –
5 | B5 | – | – | – | – | – | – | 4
